Assay results reported in PMC11929074, “An in vitro platform for the enzymatic characterization of the rhomboid protease RHBDL4” (The Journal of Biological Chemistry, 2025).
Entries after “also recorded” stand apart in the source; their conditions may differ. The star is where a group is joined. Dnp = O=[N+]([O-])c1ccc(*)c([N+](=O)[O-])c1; Mca = COc1ccc2c(CC(=O)*)cc(=O)oc2c1

Columns and labels:
RHBDL4-S144A = assay: FRET-based cleavage by inactive RHBDL4-S144A; format: biochemical, human; details: pH 8, 37 °C
Source text: (§1) The reaction setup in our FRET assay enabled the direct determination of Michaelis–Menten kinetic parameters Km and kcat for the cleavage of IQ6, IQ41, and IQ46 by RHBDL4. Our fluorescence reading data were converted to μM/h using the standard calibration curve for all three IQ substrates, and the correction factor for the inner filter effect was applied. We confirmed that purified RHBDL4 followed Michaelis–Menten kinetics with KmIQ6=10.73±2μΜ , KmIQ41=5.63±2μΜ , and KmIQ46=7.19±1μΜ and kcatIQ6=7.33±0.6h^−1 , kcatIQ41=2.41±0.6h^−1 , and kcatIQ46=3.62±0.08h^−1 (Figs. 2B and S2B).
Figure 3 Dependence of conserved rhomboid motifs on RHBDL4 protease activity.A, RHBDL4 representation highlighting TM1–6 (in green), the VBM- and UIM-binding motifs (in blue), the conserved rhomboid motifs (WR and Gx3G), and the serine-histidine catalytic dyad (in pink). The table indicates the RHBDL4 region, the conserved rhomboid motifs, and amino acid mutation. The RHBDL4 proteolytic activity. B, size-exclusion chromatography profile of RHBDL4-AR and RHBDL4-Ax3G, being eluted as a monomeric protein. C, coomassie staining and Western blotting using an α-His antibody of concentrated purified RHBDL4-AR and RHBDL4-Ax3G. D, activity profiles of the WT RHBDL4 and mutant RHBDL4-S144A, RHBDL4-AR, and RHBDL4-Ax3G proteins, as measured by cleavage of the fluorescent substrate IQ6. Assay was performed in triplicate (n = 3), and data points are represented by the average ± S.E.M. Statistically significant differences compared to WT RHBDL4 are indicated (pairwise Dunnett's test followed by Bonferroni's post hoc analysis; ∗p < 0.05, n.s., no significance).
(§2) The enzymatic assay was performed as previously described (Arutyunova et al., 2014, ([26])). […] The FRET-based cleavage assay was conducted in a fluorescence multiwell plate reader (SynergyMx, BioTek). Upon excitation at 320 nm, the emission intensity at 400 nm was recorded for 2 h at minimal intervals under shaking conditions and plotted using the GraphPad PRISM software. […]

recombinant human RHBDL4 [1] = biological target: T1, recombinant human RHBDL4 (Homo sapiens, UniProt Q8TEB9); assay: FRET-based cleavage assay with fluorescent (IQ / KSp207) substrates; format: biochemical; details: for kcat: average ± S.E.M.; for RHBDL4-catalyzed activity towards GlpG/PARL model substrates: in vitro cleavage assay
T1 construct: The entire RHBDL4 and RHBDL4-S144A cDNAs were subcloned into the pcDNA3.1 vector; 6xHis (C, cleaved yes); made in house; host or cells: Freestyle 293-F cells (transient transfection, pcDNA3.1-HisA)
T1 sequence (Q8TEB9 1-315): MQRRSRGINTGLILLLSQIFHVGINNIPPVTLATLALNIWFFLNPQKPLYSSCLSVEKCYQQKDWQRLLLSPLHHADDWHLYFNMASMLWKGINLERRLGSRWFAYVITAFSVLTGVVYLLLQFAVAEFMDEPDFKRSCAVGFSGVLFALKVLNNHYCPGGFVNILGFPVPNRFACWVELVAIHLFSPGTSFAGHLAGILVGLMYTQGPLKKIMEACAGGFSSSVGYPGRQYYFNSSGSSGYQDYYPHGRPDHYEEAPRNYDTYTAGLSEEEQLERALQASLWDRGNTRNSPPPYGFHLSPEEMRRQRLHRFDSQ
Protocol: Figure 2 Kinetic characterization of recombinant human RHBDL4.A, schematic representation of the FRET-based cleavage assay using internally quenched (IQ) substrates. B, saturation curves of RHBDL4 using the fluorescent IQ substrates, IQ6, IQ41, and IQ46. C, pH dependence of the RHBDL4 protease activity using substrates IQ6, IQ41, and IQ46. D, salt concentration dependence of the RHBDL4 protease activity using substrates IQ6, IQ41, and IQ46. All the assays were performed in triplicate, and data points are represented by the average ± S.E.M. TEXT PRINTED IN THE PICTURE: (B) IQ 6: KM(μM) 10.73±2; Kcat(hr^-1) 7.33±0.6 | (B) IQ 41: KM(μM) 5.63±2; Kcat(hr^-1) 2.41±0.6 | (B) IQ 46: KM(μM) 7.19±1; Kcat(hr^-1) 3.62±0.8
as §1
Our FRET-based assay is a suitable platform for optimizing conditions that enhance RHBDL4 protease activity. To this end, we selected the optimal pH for RHBDL4 protease activity and performed FRET-based assays with IQ6, IQ41, and IQ46 at a pH range of 5 to 10. […] The optimal salt concentration for the RHBDL4 protease activity was also tested in the range of 100 to 300 mM (Fig. 2D). We conclude that with the IQ6, IQ41, and IQ46 substrates, RHBDL4 had satisfactory activity in a salt concentration range of 100 to 300 mM.
Figure 5 In vitro inhibition of RHBDL4 activity with TMED7-derived peptidyl α-ketoamides.A, schematic representation of the peptidyl-α-ketoamide inhibitor, compound 3 and 4. B, representative inhibition curve derived from measuring rates of RHBDL4 proteolysis of the fluorescent substrate IQ6 with increasing concentrations of compound 3. C, same as (B), except inhibition curve was derived from using increasing concentrations of compound 4. […] Reactions were quenched with 1 RLaemmli buffer and loaded on 12% SDS-PAGE gel. Post-transfer membranes were visualized using a fluorescence Cy3 filter and by Western blotting using an α-His antibody. E, saturation curve of RHBDL4 using fluorescent substrate, KSp207. For (B and C), all inhibitors were pre-incubated with RHBDL4 for 1 h and allowed to react with the IQ6 substrate for 2 h. […]
(§3) The enzymatic assay was performed as previously described (Arutyunova et al., 2014, ([26])). […] The FRET-based cleavage assay was conducted in a fluorescence multiwell plate reader (SynergyMx, BioTek). Upon excitation at 320 nm, the emission intensity at 400 nm was recorded for 2 h at minimal intervals under shaking conditions and plotted using the GraphPad PRISM software. The initial velocities were defined as the slopes of the curve of the generated product as a function of time. The plots of the generated product against the corresponding substrate concentration were fitted with the Michaelis–Menten equation. Catalytic parameters were extrapolated using GraphPad PRISM. […] The samples were desalted using C18 tips (Rainin), eluted in 80% acetonitrile, and dried down in a vacuum centrifuge prior to mass spectrometry analysis.
All the calculations for Km, Vmax, and Kcat for RHBDL4 and its mutants were performed using GraphPad PRISM.

recombinant human RHBDL4 [2] = biological target: T1, recombinant human RHBDL4; assay: Mass spectrometry identification of cleavage sites in IQ6; format: biochemical; details: 1.5 μM RHBDL4, 10 μM IQ6, 4 h, room temperature, quenched with 8 M GuHCl; MS/MS
Protocol: as §3
Supplemental Information 4. […] (B) Depiction of IQ6 cleavage sites as determined from tandem mass spectrometry (MS/MS). (C) Peptide sequence of GlpG-derived and PARL-derived fluorescent substrates IQ4 and IQ15, respectively. (D) Activity profiles of the wild-type RHBDL4 and mutant RHBDL4-S144A, as measured by cleavage of the fluorescent substrates IQ4 and IQ15. Assays was performed in triplicate, and data points are represented by the average ± S.E.M.

RHBDL4-AR = assay: FRET-based cleavage of IQ6 by RHBDL4-AR mutant (WR motif); format: biochemical, human; details: IQ6 substrate; n = 3
Source text: (§4) All mutants had robust expression on day 3 post-transfection of Freestyle 293-F cells, when cells were harvested for purification. RHBDL4 contains two motifs that are well conserved among the rhomboid superfamily, the WR motif in L1 and the Gx3G motif in TM domain 6 (Fig. S3, A and B) ([8]). Both motifs are required for RHBDL4-mediated ERAD function (Fleig et al. 2012). We predicted that both AR and Ax3G mutants would result in lower RHBDL4 activity. To that end, RHBDL4-AR and RHBDL4-Ax3G were expressed and purified using affinity Ni-NTA column followed by SEC (Fig. 3, B and C). […]
(§5) Figure 3 Dependence of conserved rhomboid motifs on RHBDL4 protease activity.A, RHBDL4 representation highlighting TM1–6 (in green), the VBM- and UIM-binding motifs (in blue), the conserved rhomboid motifs (WR and Gx3G), and the serine-histidine catalytic dyad (in pink). […] D, activity profiles of the WT RHBDL4 and mutant RHBDL4-S144A, RHBDL4-AR, and RHBDL4-Ax3G proteins, as measured by cleavage of the fluorescent substrate IQ6. […]
as §2

RHBDL4-Ax3G = assay: FRET-based cleavage of IQ6 by RHBDL4-Ax3G mutant; format: biochemical, human; details: IQ6 substrate; n = 3
Source text: as §4, §5, §2

[3] = tested on: mammalian rhomboid protease PARL; details: ref [26], [27]; cited from earlier work
[4] = tested on: bacterial rhomboid protease GlpG; details: ref [26], [27]; cited from earlier work

Substance	cleavage by inactive RHBDL4-S144A (increase in fluorescence / activity) (RHBDL4-S144A)	kcat (recombinant human RHBDL4 [1]; 37 °C, pH 8.0, triplicate) [s⁻¹]	cleavage rate/efficiency relative to other substrates (recombinant human RHBDL4 [1]; FRET-based assay)	faster kinetics in comparison to IQ41 (recombinant human RHBDL4 [1]; IQ6 versus IQ41)	faster kinetics in comparison to IQ46 (recombinant human RHBDL4 [1]; IQ6 versus IQ46)	kcat (recombinant human RHBDL4 [1]; Michaelis-Menten, 1.5 μM RHBDL4, 37 °C, 2 h, pH 8.0, 150 mM NaCl, 0.1% DDM, triplicate) [s⁻¹]	catalytic rate (cleavage rate) (recombinant human RHBDL4 [1]; approximate, discussion)	pH of highest RHBDL4 protease activity (recombinant human RHBDL4 [1]; pH range 5 to 10, triplicate)	salt concentration range with satisfactory activity (recombinant human RHBDL4 [1]; salt tested 100 to 300 mM, triplicate) [mM]	N-terminal cleavage products (recombinant human RHBDL4 [2])	decrease in activity compared with WT RHBDL4 (RHBDL4-AR) [fold]	enzymatic cleavage activity compared with WT RHBDL4 (RHBDL4-Ax3G)	RHBDL4-catalyzed activity towards GlpG/PARL model substrates (recombinant human RHBDL4 [1]; triplicate)	cleavage by PARL [3]	cleavage by GlpG [4]
Mca-Arg-Pro-Pro-Gly-Phe-Ser-Ala-Phe-Lys (DNP)-OH (Mca-RPPGFSAFK(Dnp)-OH; SMILES COc1ccc2c(CC(=O)N[C@@H](CCCNC(=N)N)C(=O)N3CCC[C@H]3C(=O)N3CCC[C@H]3C(=O)NCC(=O)N[C@@H](Cc3ccccc3)C(=O)N[C@@H](CO)C(=O)N[C@@H](C)C(=O)N[C@@H](Cc3ccccc3)C(=O)N[C@@H](CCCCNc3ccc([N+](=O)[O-])cc3[N+](=O)[O-])C(=O)O)cc(=O)oc2c1) [IQ6, fluorescent internally quenched substrate mca-…(dnp)]	negligible increase in fluorescence; also recorded: negligible activity	0.00204 ± 0.00017	exhibited the highest cleavage rate for RHBDL4 proteolysis; also recorded: maximum activity	three-fold	two-fold	0.00204 ± 0.00017	approximately 7 /h	8	100 to 300	mca-RPPGFSA and mca-RPPGFS	~6	retained enzymatic cleavage activity at levels comparable to WT RHBDL4	–	–	–
mca-AVFLSAVAG(dnp) [IQ15, PGAM-derived PARL model substrate mca-…(dnp)]	–	–	–	–	–	–	–	–	–	–	–	–	did not observe any RHBDL4-catalyzed activity	cleave	–
mca-RPKPYAvWMK(dnp) [IQ4, GlpG model substrate mca-RPKPYAvWMK(dnp)]	–	–	–	–	–	–	–	–	–	–	–	–	did not observe any RHBDL4-catalyzed activity	–	cleave
